This is an account of results in article PMC5717350, “The human CTF4-orthologue AND-1 interacts with DNA polymerase α/primase via its unique C-terminal HMG box” (Open Biology, 2017).

One may read the Kd as the constant that tells how readily two partners part at equilibrium.

No end group written: not given here.

Data set [1] addresses T1, AND-1 (329–826), SepB domain (human, UniProt O75717 329-826).
T1 construct: human AND-1, residues 329-826 (SepB domain); residues 329-420 and 824-826 not in the final crystallographic model; Trimer arises from crystallographic symmetry (one protomer per asymmetric unit); also called AND-1 SepB
T1 sequence (looked up): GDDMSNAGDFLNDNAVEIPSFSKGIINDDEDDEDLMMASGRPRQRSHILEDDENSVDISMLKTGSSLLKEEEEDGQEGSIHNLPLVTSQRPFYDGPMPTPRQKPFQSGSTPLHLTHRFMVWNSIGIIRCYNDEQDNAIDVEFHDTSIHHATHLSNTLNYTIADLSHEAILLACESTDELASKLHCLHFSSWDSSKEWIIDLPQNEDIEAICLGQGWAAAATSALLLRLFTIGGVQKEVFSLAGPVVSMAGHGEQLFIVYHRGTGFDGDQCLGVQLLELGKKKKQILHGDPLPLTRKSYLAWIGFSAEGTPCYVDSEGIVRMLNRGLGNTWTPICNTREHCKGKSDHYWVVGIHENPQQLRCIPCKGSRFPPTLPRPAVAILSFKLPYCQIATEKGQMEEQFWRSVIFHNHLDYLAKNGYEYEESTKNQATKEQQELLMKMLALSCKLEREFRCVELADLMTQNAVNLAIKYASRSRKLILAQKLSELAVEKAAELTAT
Put plainly: fluorescence polarisation; 30 nM fluorescein-labelled Pol α CIP peptide, AND-1 SepB titrated; 25 mM HEPES pH 7.2, 140 mM NaCl, 5 mM DTT, 5 mM MgCl2, 5% glycerol; 25°C; 96-well plate. The note with it: both partners purified. A general note: Polarisation of emitted light reports the rotation of a fluorescent probe.

Data set [2] addresses T2, AND-1 full length (human, UniProt O75717 1-1129).
T2 sequence: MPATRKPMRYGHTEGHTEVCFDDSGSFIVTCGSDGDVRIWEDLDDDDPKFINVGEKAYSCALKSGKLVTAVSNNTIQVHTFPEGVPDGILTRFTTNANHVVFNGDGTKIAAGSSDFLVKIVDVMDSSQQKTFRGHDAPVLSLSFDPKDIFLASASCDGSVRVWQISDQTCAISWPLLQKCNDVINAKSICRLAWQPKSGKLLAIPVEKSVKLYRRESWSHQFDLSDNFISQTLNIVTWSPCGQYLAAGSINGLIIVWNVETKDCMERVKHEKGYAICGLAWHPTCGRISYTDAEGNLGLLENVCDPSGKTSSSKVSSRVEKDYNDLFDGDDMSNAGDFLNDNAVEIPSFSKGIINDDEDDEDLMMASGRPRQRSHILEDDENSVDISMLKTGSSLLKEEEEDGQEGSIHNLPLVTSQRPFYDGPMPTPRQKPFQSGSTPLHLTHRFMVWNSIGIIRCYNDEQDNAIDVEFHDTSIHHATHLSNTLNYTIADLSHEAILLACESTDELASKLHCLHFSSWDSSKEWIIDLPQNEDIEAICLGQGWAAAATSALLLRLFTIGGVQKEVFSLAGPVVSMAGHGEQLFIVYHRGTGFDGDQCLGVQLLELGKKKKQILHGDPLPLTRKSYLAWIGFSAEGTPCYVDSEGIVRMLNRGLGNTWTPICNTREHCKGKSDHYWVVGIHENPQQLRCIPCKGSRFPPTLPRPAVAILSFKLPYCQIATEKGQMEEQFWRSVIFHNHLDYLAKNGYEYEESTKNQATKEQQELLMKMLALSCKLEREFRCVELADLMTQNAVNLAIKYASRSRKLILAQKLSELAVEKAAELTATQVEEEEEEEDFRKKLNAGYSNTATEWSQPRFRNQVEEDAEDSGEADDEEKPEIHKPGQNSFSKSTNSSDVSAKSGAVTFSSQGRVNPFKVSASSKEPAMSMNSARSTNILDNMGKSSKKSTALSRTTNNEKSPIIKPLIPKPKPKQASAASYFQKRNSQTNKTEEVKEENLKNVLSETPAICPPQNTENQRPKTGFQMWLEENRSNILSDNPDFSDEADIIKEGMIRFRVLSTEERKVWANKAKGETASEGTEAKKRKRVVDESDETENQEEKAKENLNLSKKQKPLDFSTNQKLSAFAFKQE
Kind of data set: fluorescence anisotropy; FP: 25 mM HEPES pH 7.2, 100 mM KCl, 0.5 mM TCEP, 20 nM DNA, 25 C; EMSA: 25 mM HEPES pH 7.2, 100 mM KCl, 5 mM MgCl2, TCEP, 3 uM DNA, 0.75% (so in the source) agarose gel in 0.5x Tris-borate pH 8.3, 4 C. Particulars: protein: recombinant; tags: His10-myc; chain copies: 3; label: 5' 6FAM; single strand.

Data set [3] concerns the target T3, AND-1CT (human, UniProt O75717 837-1129).
T3 sequence: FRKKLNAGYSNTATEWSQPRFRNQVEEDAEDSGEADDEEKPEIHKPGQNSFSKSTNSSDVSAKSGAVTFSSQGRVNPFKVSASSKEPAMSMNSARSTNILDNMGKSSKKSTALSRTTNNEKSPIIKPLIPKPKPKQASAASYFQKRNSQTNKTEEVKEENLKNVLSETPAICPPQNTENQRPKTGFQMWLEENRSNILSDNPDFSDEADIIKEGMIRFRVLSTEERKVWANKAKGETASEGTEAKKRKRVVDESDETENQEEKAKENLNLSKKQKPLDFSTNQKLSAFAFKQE
The description is as above. Particulars: protein: recombinant; tags: none (His6-MBP removed by TEV); label: 5' 6FAM; single strand.

Data set [4] has as its target T2, AND-1 full length. Put plainly: EMSA; 5 mM MgCl2; FP: 25 mM HEPES pH 7.2, 100 mM KCl, 0.5 mM TCEP, 20 nM DNA, 25 C; EMSA: 25 mM HEPES pH 7.2, 100 mM KCl, 5 mM MgCl2, TCEP, 3 uM DNA, 0.75% (so in the source) agarose gel in 0.5x Tris-borate pH 8.3, 4 C. The note with it: protein: recombinant; tags: His10-myc; chain copies: 3; label: 5' 6FAM on strand 1; fork, 20 bp duplex (1:1-20 with 2:21-40), unpaired arms of 20 nt (1:21-40 3' arm, 2:1-20 5' arm). A general note: In EMSA bound probe runs differently from free probe, usually more slowly.

In data set [5] the target is T4, MBP-tagged AND-1CT (837–1129) (human, UniProt O75717 837-1129).
T4 construct: also called entire AND-1CT; source: E. coli Rosetta2(DE3), purified (Ni-NTA, Superdex 200)
T4 sequence (looked up): T3 sequence
Kind of data set: pull-down; MBP-AND-1 constructs bound to 100 µl amylose resin, 25 nmol GST-B added as prey; PD buffer, 2.5 mg/ml BSA, 4°C; eluted with 20 mM maltose; Coomassie. Particulars: both partners purified.

Data set [6] concerns the target T5, Full-length His10-myc-tagged AND-1 (1–1129) (human, UniProt O75717 1-1129).
T5 construct: the oligomeric state was measured only on the SepB constructs; also called His-myc-AND-1; human CTF4-orthologue AND-1; source: Sf9 insect cells (baculovirus, MultiBac), purified (Ni-NTA, Q-Sepharose)
T5 sequence (looked up): T2 sequence
Kind of data set: pull-down; GST-B fusion proteins (in figure 6a also GST-Pol α CIP, equimolar) bound to 100 µl glutathione agarose, 2.2 nmol AND-1 (1–1129, 316–1129 or 336–826) added as prey; PD buffer, 2.5 mg/ml BSA, 4°C; Coomassie, anti-His western blot in figure 6a. Particulars: both partners purified. (In general: Immunoblotting shows a protein as a band on a membrane.)

Data set [7] addresses T6, AND-1 SepB + CT (316–1129) (human, UniProt O75717 316-1129).
T6 construct: source: E. coli Rosetta2(DE3), purified (Ni-NTA, Q-Sepharose, TEV cleavage, Superdex 200)
T6 sequence (looked up): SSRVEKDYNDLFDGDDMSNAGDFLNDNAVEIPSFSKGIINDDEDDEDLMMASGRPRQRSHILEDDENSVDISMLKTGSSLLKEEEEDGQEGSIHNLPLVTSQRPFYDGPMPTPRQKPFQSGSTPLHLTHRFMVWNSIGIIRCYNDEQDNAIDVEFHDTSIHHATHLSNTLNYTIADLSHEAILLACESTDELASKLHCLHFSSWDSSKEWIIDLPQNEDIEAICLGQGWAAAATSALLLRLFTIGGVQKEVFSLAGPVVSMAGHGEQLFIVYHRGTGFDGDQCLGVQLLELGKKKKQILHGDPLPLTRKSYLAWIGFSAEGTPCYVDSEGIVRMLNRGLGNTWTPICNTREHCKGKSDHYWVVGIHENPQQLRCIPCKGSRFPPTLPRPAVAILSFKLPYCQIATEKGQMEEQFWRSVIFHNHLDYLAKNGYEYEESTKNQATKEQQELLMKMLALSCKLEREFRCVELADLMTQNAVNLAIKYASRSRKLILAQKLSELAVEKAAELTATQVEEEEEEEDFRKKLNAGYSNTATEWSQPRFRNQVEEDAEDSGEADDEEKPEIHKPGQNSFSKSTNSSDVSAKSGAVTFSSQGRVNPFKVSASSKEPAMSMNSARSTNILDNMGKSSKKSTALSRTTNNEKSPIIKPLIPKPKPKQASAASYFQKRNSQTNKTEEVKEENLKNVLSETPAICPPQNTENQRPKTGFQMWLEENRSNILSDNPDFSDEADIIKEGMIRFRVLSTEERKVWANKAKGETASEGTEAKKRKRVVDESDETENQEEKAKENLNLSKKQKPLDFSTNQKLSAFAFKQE
Described as above. Particulars: both partners purified.

The target in data set [8] is T7, AND-1 SepB (336–826) (human, UniProt O75717 336-826).
T7 construct: source: E. coli Rosetta2(DE3), purified (Ni-NTA, Q-Sepharose, TEV cleavage, Superdex 200)
T7 sequence (looked up): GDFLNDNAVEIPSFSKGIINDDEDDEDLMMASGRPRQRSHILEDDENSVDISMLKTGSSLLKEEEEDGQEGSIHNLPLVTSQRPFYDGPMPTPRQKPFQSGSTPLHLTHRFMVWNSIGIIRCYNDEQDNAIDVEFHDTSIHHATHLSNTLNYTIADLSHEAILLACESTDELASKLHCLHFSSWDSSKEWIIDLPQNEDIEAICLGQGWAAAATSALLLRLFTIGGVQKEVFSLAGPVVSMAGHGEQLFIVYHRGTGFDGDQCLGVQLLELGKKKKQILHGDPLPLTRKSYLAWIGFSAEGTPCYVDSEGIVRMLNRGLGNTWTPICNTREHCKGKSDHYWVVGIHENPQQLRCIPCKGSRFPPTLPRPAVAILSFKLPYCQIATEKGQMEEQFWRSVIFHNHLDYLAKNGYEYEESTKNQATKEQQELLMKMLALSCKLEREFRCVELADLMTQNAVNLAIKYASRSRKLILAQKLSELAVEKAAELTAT
Put plainly: pull-down; GST-Pol α fusion proteins bound to 100 µl glutathione agarose, 20 nmol AND-1 SepB added as prey; PD buffer, 2.5 mg/ml BSA, 4°C; eluted with 20 mM reduced glutathione; Coomassie. The note with it: both partners purified.

B1: Fluorescein-labelled Pol α CIP peptide (152–171) (peptide)
peptide: DLSKDGLLGDILQDLNTETP
modifications: also: fluorescein label, position not given here
notes: source: synthetic peptide (Genosphere Biotechnologies)
In turn, B1 had a dissociation constant (Kd) in data set [1] of 39000 nM.
CTTCCGAGACCTTGCCCATCCCGTAGAACCTGTTATCCAA (ssDNA) [ssDNA 40mer (oligo A)]: the dissociation constant Kd in data set [2] and in data set [3] was around 800 nM each time.

B2: fDNA (oligos A+C) (mixed)
DNA 1: CTTCCGAGACCTTGCCCATCCCGTAGAACCTGTTATCCAA
DNA 2: GCTACCTTTGAACCTACGATGATGGGCAAGGTCTCGGAAG
On to B2, for which the binding result in data set [4] is “binds”.

B3: GST-BNTD (B subunit amino acids 1–78) (domain or fragment, human, UniProt Q14181 1-78, looked up)
chain: MSASAQQLAEELQIFGLDCEEALIEKLVELCVQYGQNEEGMVGELIAFCTSTHKVGLTSEILNSFEHEFLSKRLSKAR
notes: human DNA polymerase α B subunit, residues 1-78 (four-helix bundle N-terminal domain); also called GST-B(1–78); B N-terminal domain; source: E. coli Rosetta2(DE3), purified (Ni-NTA agarose)
For B3, the binding result in data set [5], in data set [6] and in data set [7] was “binds” each time.

B4: GST-Pol α (148–171), wild type (domain or fragment, human)
chain: DKAVDLSKDGLLGDILQDLNTETP
notes: also called GST-Pol α CIP; GST-tagged Pol α CIP; source: E. coli Rosetta2(DE3), purified (Ni-NTA agarose); not shown: His tag (from the purification on Ni-NTA)
Turning to B4, the binding result in data set [8] is reported as “binds”.
